# Positions count from the first letter of the chain named.
# T1: PDZ domain of mitochondrial outer membrane protein 25 (mammalian (so in the source)) (UniProt P57105)
# T1 sequence (looked up): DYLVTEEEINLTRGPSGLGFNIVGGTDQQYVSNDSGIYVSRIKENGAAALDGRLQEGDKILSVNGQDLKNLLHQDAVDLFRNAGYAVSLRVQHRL
# B1: P4 (VHH)
# VHH: HVQLVESGGGLVQAGGSLRLSCAAAGRTSSDYAMGWFRQAPGKEREFVSAINWSGISTYYADSVKGRFTISRDNAKNTVHLQMNSLKPEDTAVYYCAAEKLESLRNWHDPLMYDYWGQGTQVTVSE
# B2: P2 (VHH)
# VHH: DVQLVESGGGLVQAGGSLRLSCAASGHTFSSYTMGWFHQAPGKEREFVAEISGTGGNTGYADSVKGRFTISRDNAKNTVYLQMNSLKPEDTAVYYCAAVIGSPTDSSDYRSSLDYDYWGQGTQVTVSE
# B3: P3 (VHH)
# VHH: B2 VHH with H27R, S52G
# B4: P5 (VHH)
# VHH: DVQLVESGGGLVQAGDSLRLSCAASGITFRWYTMAWFRQAPGKERDFVATINWSGSDTNYADSVKGRFTISRDNAKNTVTLQMNSLQPEDTAVYYCAGVPGTSLSGETDPRDYDYWGQGTQVTVSE
# B5: G77 (VHH)
# VHH: QVQLVESGGGLVQAGGSLRLSCTASRSTFRVNPAGWYRQAPGKERELVARITSGGSTNYADSVKGRFTISRDNAKNTVYLQMNSLKPEDTAVYYCNVPYYMEDGYEHDAWGQGTQVTVSS
# B6: G67 (VHH)
# VHH: HVQLVESGGGLVQAGGSLRLSCVASGHTVSNYAMAWFRQAPGKEREFVAGISWRATLTYYRDSVKGRFTISRDNAKNTVYLQMSSLKPEDTAVYFCASDRTPYVSRGTSLVEYDYWGQGTQVTVSS
# B7: G65 (VHH)
# VHH: QVQLVESGGGLVQAGGSLRLSCATSGRTFSTYALGWFRQRPGKEREFVATIHWSDGRTLYADSVKGRFTLSRDNAQNTVYLQMNSLKPEDTAIYYCAASIYRIGSYDVSTSQGYDYWGQGTQVTVSS
# B8: G66 (VHH)
# VHH: B7 VHH with L34M, A61T, I93V, S99A, I100T, D115N
# B9: G70 (VHH)
# VHH: QVQLVESGGGLVQAGGSLRLSCAASGATFSINAIGWYRQAPGKQRELVAVIKSGNSINYADSVKGRFTISRDHAKNTVYLQMNNLKPEDTAVYYCHADQPPETGWGTWNDLWGQGTQVTVSS
# B10: G52 (VHH)
# VHH: EVQLVESGGGLVQAGGSLRLSCAASGSTFSSKPIGWYRQAPGKGRDLVAAIGGGSSTFYVDSVKGRFTMSRDNAKNTVALQMNSLKPEDTAVYYCNEYLGPKVLPIGSWGQGTQVTVSS
# B11: G68 (VHH)
# VHH: EVQLVESGGGLVQAGGSLRLSCTASGSIFSVNVMDWYRQAPGKQREFVATITGSGATNYADSVKGRFTISRGSAKNTVYLQMNSLKPDDTAVYYCHNADYREDGYEYDNWGQGTQVTVSS
# B12: G64 (VHH)
# VHH: HVQLVESGGGLVQAGGSLRLSCKVSGTTFSNSAIGWYRQAPGNRRELVATINYGGSTNYADSGKGRFTISKDNAKNTVYLQMNSLKPEDTAVYYCKTTEWREDGYEYDVWGQGTQVTVSS
# B13: G53 (VHH)
# VHH: HVQLVESGGGLVQAGGSLRLSCVASGFTYSTYTMGWFRQAPGKEREIVAAKNWSGARIYYTESVKGRFTISRDSGSNTMYLQMDSLKPEDTAVYYCAARLTWTDTTTPTTYPYWGQGTQVTVSS
# B14: G54 (VHH)
# VHH: QVQLVESGGGLVKPGESLKLSCVASGETLSSYIMGWFRQAPGKEREFVAAVSWSGNQQDYADSVKGRFTISRDNAEKTVDLQMNSLNPEDTAVYYCAGDQIGFWSSRTQAHEYEYWGQGTQVTVSS
# B15: G69 (VHH)
# VHH: QVQLVESGGGLVQAGGSLRLSCVDSGRTFSSNTMGWFRQAPGKDRDFVAAINRSGVITNYADSVKGRFTISRDNAKNTVYLQLNSLKPEDTAVYYCAARAGGWPSQIPVEYDRWGQGTQVTVSS
# B16: G73 (VHH)
# VHH: EVQLVESGGGLVQAGGSLRLSCAASGRTFSDDAMAWFRQAPGKEREFVAAISWHPENTFYADSVKGRFTISRDKTKNTEYLQMNSLKPEDTAVYYCAAGPRLEIGDYAQYKYWGQGTQVTVSS
# B17: G58 (VHH)
# VHH: EVQLVESGGGLVQAGGSLRLSCAGSGDTFSRYTLGWFRQAPGKEREFVAGISWSGGSTSYANSVKGRFTISRDNAKNTMYLQMNSLKPEDTAVYTCAAPGLPGTVVVGASDFYVYWGQGTQVTVSS
# B18: H33 (VHH)
# VHH: HVQLVESGGGLVQAGGSLRLSCAASGRTLSSYDMGWFRQPPGKEREFVAAITRHDFNTFYRDSVKGRFTISRDNAKNTVYLQMNSLKSEDTAVYFCAARLDPIFASNSEYAPLYDYWGQGTQVTVSS
# B19: H34 (VHH)
# VHH: B18 VHH with H1Q, Q39K, P40A, F56Y, F59Y, E109A, A111S, P112N
# B20: H44 (VHH)
# VHH: EVQLVESGGGLAQAGGSLRLSCAASGGTFSNSCMGWFRQAPGMEREFVAIIRSTGHTTYADSVEGRFTVSRDIAKNTVYLEMNSLKPEDTAVYSCAAGASDYGCYHTSGISYWGQGTQVTVSS
# B21: H37 (VHH)
# VHH: QVQLVESGGGLVQAGGSLRLSCAASGLTFSNYALGWFRRAPGKERDFVAAISYSGGSTDYADSVKGRFTISRDNAKNTVYLQMNSLKPEDTAVYYCAAAYLGWGTARTAYEYWGQGTQVTVSS
# B22: H38 (VHH)
# VHH: B21 VHH with Q1H, G26E, L34M, D46G, N77K, L101M, T108S
# B23: H42 (VHH)
# VHH: HVQLVESGGGLVQAGGSLRLSCAASGLTFSNYAMGWFRQAPGKEREFVVAISWSGANTYYSDSVKGRFTASRDNAKKTVYLQMNSLKPEDTAVYYCAADYRGLGYSTAHEYDYWGQGTQVTVSS
# B24: H32 (VHH)
# VHH: HVQLVESGGGLVQAGGSLRLSCAASDTIDNYARAWFRQAPGKEREFVAAITWTFGTPYYTDSVKGRFTISRDDAKNTVYLQMNSLKPEDTAVYYCAASLYLPVRTASGGYRLDTDRPQYWGQGTQVTVSS
# B25: H10 (VHH)
# VHH: DVQLVESGGGLVQAGGSLRLSCRASGLPFGPYTMGWFRQTPGQEREFVAAITWSSMNTNYADSVKGRFTISRDSAKNTVYLQMNTLKPDDTAVYYCAADDRAVPMLGDFEDYIYWGQGTQVTVSS
# B26: H40 (VHH)
# VHH: EVQLVESGGGLVQAGASLRLSCAASGGTFSSYIMGWFRQAPGKEREFVAAISWSGRSTHYADSVKGRFAISRDNDRVYLQMNSLKPEDTAVYSCAADPNYTWRDDRYYREEGYTYWGQGTQVTVSS
# B27: H13 (VHH)
# VHH: HVQLVESGGGLVQAGGSLRLSCAASGRTFSTYHMGWFRQAPGKAREFVAAITGSGGITYYADSVKGRFTISRDNAKNTVYLQMNSLKPEDTAVYYCAADTRAYGLVPSTTSSRYNYWGQGTQVTVSS
# B28: H39 (VHH)
# VHH: QVQLVESGGGLVQAGVSLRLSCAASERTFSSYIMGWFRQAPGKEREFIAAISWSGGNTDYAGSVQGRFTISRDNAQNTVYLQMNSLEPEDTAVYYCAADATHSWSYGSRWYDRNYNYWGQGTQVTVSS
# B29: H31 (VHH)
# VHH: QVQLVESGGGLVQPGGSLRLSCTPSGFRLEDYPIAWFRQAPGKEREGLSCITSGDGRTYYEESVKGRFTISRDNAQNKVYLQMNKLTPEDTAVYHCATVPSDNLCGYLHRRPFASWGQGTQVTVSS
# B30: H23 (VHH)
# VHH: DVQLVESGGGLVQAGGSLTLSCAASGRTFSSSTMGWFRRAPGKEREFVAAISGSARTTDYADSVKGRFTISRDNAKNTVYLQMISLKPEDTAIYYCARKRVVDVTTSNYELRYDYWGQGTQVTVSS
# B31: NbPDZ P10 (VHH)
# VHH: DVQLVESGGGLVQAGGSLRLSCTASGRTFSTYTMAWFRQAPGKEREFVAAITWSGTYYADSVKGRFTISRDNAKNTMYLQMNSLKPEDTAVYICAAVIGSTVDSYSPSDPLEYDYWGQGTQVTVSE
# Target: T1, PDZ domain of mitochondrial outer membrane protein 25 (mammalian (so in the source))
# Assay: indirect ELISA, wild type PDZ coated
row,WT ELISA affinity (LogIC50 (oD450nm)),Binder
1,4.42,B1
2,5.44,B2
3,5.26,B3
4,4.7,B4

# Target: glutathione S-transferase [GST: P08515]
# Assay: indirect ELISA, GST coated
# Chain of glutathione S-transferase [GST: P08515] (P08515 whole entry): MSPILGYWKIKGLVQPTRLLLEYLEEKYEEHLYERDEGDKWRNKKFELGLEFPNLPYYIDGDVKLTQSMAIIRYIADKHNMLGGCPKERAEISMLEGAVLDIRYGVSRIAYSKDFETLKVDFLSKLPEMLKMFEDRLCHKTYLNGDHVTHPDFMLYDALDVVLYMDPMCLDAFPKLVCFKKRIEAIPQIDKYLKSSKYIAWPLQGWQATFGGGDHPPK
row,ELISA affinity (LogIC50 (oD450nm)),Binder
1,6.01,B5
2,3.6,B6
3,3.97,B7
4,4.29,B8
5,1.75,B9
6,1,B10
7,1.07,B11
8,5.68,B12
9,5.37,B13
10,1.54,B14
11,3.69,B15
12,0.955,B16
13,1.54,B17

# Target: human serum albumin (human) (UniProt P02768)
# Assay: indirect ELISA, HSA coated
# Chain of human serum albumin (human) (P02768 25-609 limits assumed): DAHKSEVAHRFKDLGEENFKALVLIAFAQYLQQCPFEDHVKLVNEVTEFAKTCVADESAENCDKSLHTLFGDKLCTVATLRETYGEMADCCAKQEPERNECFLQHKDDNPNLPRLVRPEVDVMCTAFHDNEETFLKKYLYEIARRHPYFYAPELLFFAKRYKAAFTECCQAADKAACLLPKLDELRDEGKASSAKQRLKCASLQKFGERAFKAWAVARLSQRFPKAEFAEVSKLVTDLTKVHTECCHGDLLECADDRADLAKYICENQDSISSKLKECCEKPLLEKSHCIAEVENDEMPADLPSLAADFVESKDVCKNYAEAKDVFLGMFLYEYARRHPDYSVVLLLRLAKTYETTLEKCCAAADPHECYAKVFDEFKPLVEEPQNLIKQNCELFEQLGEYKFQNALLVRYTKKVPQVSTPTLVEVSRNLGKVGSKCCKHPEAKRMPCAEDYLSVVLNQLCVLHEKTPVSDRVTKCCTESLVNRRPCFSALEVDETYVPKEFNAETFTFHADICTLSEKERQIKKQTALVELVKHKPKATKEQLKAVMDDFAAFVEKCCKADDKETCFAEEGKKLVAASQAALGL
row,ELISA affinity (LogIC50 (oD450nm)),Binder
1,5.03,B18
2,5.07,B19
3,5.62,B20
4,1.49,B21
5,2.44,B22
6,4.92,B23
7,5.33,B24
8,1.46,B25
9,3.16,B26
10,1.96,B27
11,5.2,B28
12,1.07,B29
13,1.62,B30

# Target: GST fusion PDZ mutant protein (R46E:K48D) (mammalian (so in the source)) (UniProt P57105)
# Assay: indirect ELISA, PDZ R46E:K48D coated
row,Mutant ELISA affinity (LogIC50 (oD450nm)),Binder
1,4.58,B1
2,4.35,B2
3,4.78,B3
4,0,B4
5,3.83,B31

# Target: GST fusion PDZ mutant protein (R46E:K48D) (mammalian (so in the source)) (UniProt P57105)
# Assay: ELISA, wild type PDZ against PDZ R46E:K48D
row,Affinity fold change,Binder
1,1 fold,B1
2,12.1 fold,B2
3,3.04 fold,B3
4,50600 fold,B4
5,23.5 fold,B31

# Reference: patent publication US20230176070A1
